Laboratory results: patent publication US20230324389

Chain of MMP9 (chain, as listed by the source): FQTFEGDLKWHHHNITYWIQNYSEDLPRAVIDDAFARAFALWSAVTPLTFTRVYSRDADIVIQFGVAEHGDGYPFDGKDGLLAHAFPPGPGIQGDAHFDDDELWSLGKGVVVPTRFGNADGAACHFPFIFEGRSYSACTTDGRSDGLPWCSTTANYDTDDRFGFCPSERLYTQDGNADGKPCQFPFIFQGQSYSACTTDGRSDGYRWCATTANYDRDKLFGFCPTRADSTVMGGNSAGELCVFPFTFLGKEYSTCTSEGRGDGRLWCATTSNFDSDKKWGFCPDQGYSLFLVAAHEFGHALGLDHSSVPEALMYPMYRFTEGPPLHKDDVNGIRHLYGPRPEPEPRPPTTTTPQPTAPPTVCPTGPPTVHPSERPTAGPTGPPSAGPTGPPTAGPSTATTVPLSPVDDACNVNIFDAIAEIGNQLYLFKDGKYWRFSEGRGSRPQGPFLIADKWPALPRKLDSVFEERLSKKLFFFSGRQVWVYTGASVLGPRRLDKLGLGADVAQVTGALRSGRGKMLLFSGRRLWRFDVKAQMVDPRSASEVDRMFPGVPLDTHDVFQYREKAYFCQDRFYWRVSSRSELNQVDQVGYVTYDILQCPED

Substance: Urokinase-type Plasminogen Activator (uPA)
- unmasking (protease cleavage) activity (818-P1): Unmasking activity attributable to uPA required higher concentrations of proteases and longer digestion times
- unmasking (protease cleavage) activity (818-C1 MB): Unmasking activity attributable to uPA required higher concentrations of proteases and longer digestion times
- unmasking (protease cleavage) activity (818-C1MA): Unmasking activity attributable to uPA required higher concentrations of proteases and longer digestion times

Substance: MMP9
- unmasking (protease cleavage) rate (818-P1): MMP9: 818-P1>818-C1 MB>818-C1MA
- unmasking (protease cleavage) rate (818-C1 MB): MMP9: 818-P1>818-C1 MB>818-C1MA
- unmasking (protease cleavage) rate (818-C1MA): MMP9: 818-P1>818-C1 MB>818-C1MA
